Measurements: article PMC10786891, “Massively parallel profiling of RNA-targeting CRISPR-Cas13d”

T1: EsCas13d, nuclease-dead (Eubacterium siraeum, UniProt B0MS50, R295A;H300A;R849A;H854A)
T1 sequence: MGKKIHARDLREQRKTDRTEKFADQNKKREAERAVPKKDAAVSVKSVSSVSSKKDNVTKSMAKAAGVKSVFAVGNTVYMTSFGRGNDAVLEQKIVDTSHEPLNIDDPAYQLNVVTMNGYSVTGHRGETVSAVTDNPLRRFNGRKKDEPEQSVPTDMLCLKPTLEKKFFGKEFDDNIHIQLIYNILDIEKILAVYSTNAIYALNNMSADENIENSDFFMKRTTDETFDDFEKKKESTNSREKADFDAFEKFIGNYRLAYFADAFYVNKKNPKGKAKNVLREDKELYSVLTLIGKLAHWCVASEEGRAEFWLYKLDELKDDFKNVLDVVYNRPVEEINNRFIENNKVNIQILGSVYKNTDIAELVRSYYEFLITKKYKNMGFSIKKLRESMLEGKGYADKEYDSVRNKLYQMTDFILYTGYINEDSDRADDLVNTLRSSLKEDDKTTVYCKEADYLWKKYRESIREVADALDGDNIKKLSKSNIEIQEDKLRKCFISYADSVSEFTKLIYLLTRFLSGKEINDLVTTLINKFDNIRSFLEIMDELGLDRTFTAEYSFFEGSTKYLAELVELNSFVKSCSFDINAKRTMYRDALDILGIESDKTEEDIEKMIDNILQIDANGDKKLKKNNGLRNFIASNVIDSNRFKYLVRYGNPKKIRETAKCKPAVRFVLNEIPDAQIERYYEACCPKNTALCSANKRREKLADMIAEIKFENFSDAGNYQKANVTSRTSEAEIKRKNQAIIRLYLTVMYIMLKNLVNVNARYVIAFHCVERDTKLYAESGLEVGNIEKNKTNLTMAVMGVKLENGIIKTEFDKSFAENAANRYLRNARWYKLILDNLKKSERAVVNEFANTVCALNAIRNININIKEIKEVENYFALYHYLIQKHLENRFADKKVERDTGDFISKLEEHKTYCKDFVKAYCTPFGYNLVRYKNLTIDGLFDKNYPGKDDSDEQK


biological target: T1, EsCas13d, nuclease-dead; experiment: crRNA (strand 1, pre-loaded); Mg2+; 40 mM Tris-HCl pH 7.5, 150 mM NaCl, 6 mM MgCl2, 1 mM DTT, 0.1% Tween-20, 0.2 mg/ml BSA; 25 C; 10 min per concentration, then washed; details: tags: His6-TwinStrep-SUMO cleaved; N-terminal SNAP kept (SNAP-Surface 488); label: 3' end held by stalled T7 RNA polymerase

Binder | Kd [nM]
target 1 U8A,A9G (mixed) RNA 1: CACCCGUGCAAAAAUGCAGGGGUCUAAAACUGAGCGGAUAACCUCUCUAUGG RNA 2: GGGAAUGGAUCCACAUCUACGAAUUCGUACCAUAGAGAGGUUGACCGCUCACCGAGAUCGGAAGAGCACACGU | 19.3 ± 1
target 1 G5C,C7A (mixed) RNA 1: CACCCGUGCAAAAAUGCAGGGGUCUAAAACUGAGCGGAUAACCUCUCUAUGG RNA 2: GGGAAUGGAUCCACAUCUACGAAUUCGUACCAUAGAGAGGUUAUACCCUCACCGAGAUCGGAAGAGCACACGU | 21.2 ± 1.4
target 1 C6U,G15A (mixed) RNA 1: CACCCGUGCAAAAAUGCAGGGGUCUAAAACUGAGCGGAUAACCUCUCUAUGG RNA 2: GGGAAUGGAUCCACAUCUACGAAUUCGUACCAUAGAAAGGUUAUCUGCUCACCGAGAUCGGAAGAGCACACGU | 11.9 ± 0.5
target 1 insA 3' of 17,insU 3' of 15 (mixed) RNA 1: CACCCGUGCAAAAAUGCAGGGGUCUAAAACUGAGCGGAUAACCUCUCUAUGG RNA 2: GGGAAUGGAUCCACAUCUACGAAUUCGUACCAUAGAAGUAGGUUAUCCGCUCACCGAGAUCGGAAGAGCACACGU | 12 ± 4
target 1 insU 3' of 14,insG 3' of 14 (mixed) RNA 1: CACCCGUGCAAAAAUGCAGGGGUCUAAAACUGAGCGGAUAACCUCUCUAUGG RNA 2: GGGAAUGGAUCCACAUCUACGAAUUCGUACCAUAGAGAUGGGUUAUCCGCUCACCGAGAUCGGAAGAGCACACGU | 44 ± 10
target 1 C4A,A20U (mixed) RNA 1: CACCCGUGCAAAAAUGCAGGGGUCUAAAACUGAGCGGAUAACCUCUCUAUGG RNA 2: GGGAAUGGAUCCACAUCUACGAAUUCGUACCUUAGAGAGGUUAUCCGAUCACCGAGAUCGGAAGAGCACACGU | 21.1 ± 3.3
target 1 insU 3' of 17,insG 3' of 14 (mixed) RNA 1: CACCCGUGCAAAAAUGCAGGGGUCUAAAACUGAGCGGAUAACCUCUCUAUGG RNA 2: GGGAAUGGAUCCACAUCUACGAAUUCGUACCAUAGUAGAGGGUUAUCCGCUCACCGAGAUCGGAAGAGCACACGU | 23 ± 5
target 1 C2A,C7U (mixed) RNA 1: CACCCGUGCAAAAAUGCAGGGGUCUAAAACUGAGCGGAUAACCUCUCUAUGG RNA 2: GGGAAUGGAUCCACAUCUACGAAUUCGUACCAUAGAGAGGUUAUUCGCUAACCGAGAUCGGAAGAGCACACGU | 5.2 ± 0.4
target 1 insA 3' of 17,insG 3' of 6 (mixed) RNA 1: CACCCGUGCAAAAAUGCAGGGGUCUAAAACUGAGCGGAUAACCUCUCUAUGG RNA 2: GGGAAUGGAUCCACAUCUACGAAUUCGUACCAUAGAAGAGGUUAUCCGGCUCACCGAGAUCGGAAGAGCACACGU | 19.4 ± 0.8
target 1 insG 3' of 8,insC 3' of 8 (mixed) RNA 1: CACCCGUGCAAAAAUGCAGGGGUCUAAAACUGAGCGGAUAACCUCUCUAUGG RNA 2: GGGAAUGGAUCCACAUCUACGAAUUCGUACCAUAGAGAGGUUAUGCCCGCUCACCGAGAUCGGAAGAGCACACGU | 12.9 ± 0.5
target 1 insA 3' of 13,insG 3' of 4 (mixed) RNA 1: CACCCGUGCAAAAAUGCAGGGGUCUAAAACUGAGCGGAUAACCUCUCUAUGG RNA 2: GGGAAUGGAUCCACAUCUACGAAUUCGUACCAUAGAGAGAGUUAUCCGCGUCACCGAGAUCGGAAGAGCACACGU | 3.04 ± 0.19
target 1 A1C,U19G (mixed) RNA 1: CACCCGUGCAAAAAUGCAGGGGUCUAAAACUGAGCGGAUAACCUCUCUAUGG RNA 2: GGGAAUGGAUCCACAUCUACGAAUUCGUACCAGAGAGAGGUUAUCCGCUCCCCGAGAUCGGAAGAGCACACGU | ~80
target 1 C4G,U8G (mixed) RNA 1: CACCCGUGCAAAAAUGCAGGGGUCUAAAACUGAGCGGAUAACCUCUCUAUGG RNA 2: GGGAAUGGAUCCACAUCUACGAAUUCGUACCAUAGAGAGGUUAGCCGGUCACCGAGAUCGGAAGAGCACACGU | 5.52 ± 0.21
target 1 G5A,A9G (mixed) RNA 1: CACCCGUGCAAAAAUGCAGGGGUCUAAAACUGAGCGGAUAACCUCUCUAUGG RNA 2: GGGAAUGGAUCCACAUCUACGAAUUCGUACCAUAGAGAGGUUGUCCACUCACCGAGAUCGGAAGAGCACACGU | 19.3 ± 1.1
target 1 insC 3' of 5,insU 3' of 1 (mixed) RNA 1: CACCCGUGCAAAAAUGCAGGGGUCUAAAACUGAGCGGAUAACCUCUCUAUGG RNA 2: GGGAAUGGAUCCACAUCUACGAAUUCGUACCAUAGAGAGGUUAUCCGCCUCAUCCGAGAUCGGAAGAGCACACGU | 9.61 ± 0.26
target 1 C7G,A14U (mixed) RNA 1: CACCCGUGCAAAAAUGCAGGGGUCUAAAACUGAGCGGAUAACCUCUCUAUGG RNA 2: GGGAAUGGAUCCACAUCUACGAAUUCGUACCAUAGAGUGGUUAUGCGCUCACCGAGAUCGGAAGAGCACACGU | 66 ± 16
target 1 insC 3' of 10 (mixed) RNA 1: CACCCGUGCAAAAAUGCAGGGGUCUAAAACUGAGCGGAUAACCUCUCUAUGG RNA 2: GGGAAUGGAUCCACAUCUACGAAUUCGUACCAUAGAGAGGUUCAUCCGCUCACCGAGAUCGGAAGAGCACACGU | 15.5 ± 0.9
target 1 insC 3' of 12,insC 3' of 5 (mixed) RNA 1: CACCCGUGCAAAAAUGCAGGGGUCUAAAACUGAGCGGAUAACCUCUCUAUGG RNA 2: GGGAAUGGAUCCACAUCUACGAAUUCGUACCAUAGAGAGGCUUAUCCGCCUCACCGAGAUCGGAAGAGCACACGU | 13.4 ± 0.7
target 1 insC 3' of 20,insU 3' of 15 (mixed) RNA 1: CACCCGUGCAAAAAUGCAGGGGUCUAAAACUGAGCGGAUAACCUCUCUAUGG RNA 2: GGGAAUGGAUCCACAUCUACGAAUUCGUACCACUAGAGUAGGUUAUCCGCUCACCGAGAUCGGAAGAGCACACGU | 10 ± 0.7
target 1 insU 3' of 12,insC 3' of 8 (mixed) RNA 1: CACCCGUGCAAAAAUGCAGGGGUCUAAAACUGAGCGGAUAACCUCUCUAUGG RNA 2: GGGAAUGGAUCCACAUCUACGAAUUCGUACCAUAGAGAGGUUUAUCCCGCUCACCGAGAUCGGAAGAGCACACGU | 19.5 ± 1
target 1 C2A,C7A (mixed) RNA 1: CACCCGUGCAAAAAUGCAGGGGUCUAAAACUGAGCGGAUAACCUCUCUAUGG RNA 2: GGGAAUGGAUCCACAUCUACGAAUUCGUACCAUAGAGAGGUUAUACGCUAACCGAGAUCGGAAGAGCACACGU | 5.34 ± 0.16
target 1 insU 3' of 4,insU 3' of 2 (mixed) RNA 1: CACCCGUGCAAAAAUGCAGGGGUCUAAAACUGAGCGGAUAACCUCUCUAUGG RNA 2: GGGAAUGGAUCCACAUCUACGAAUUCGUACCAUAGAGAGGUUAUCCGCUUCUACCGAGAUCGGAAGAGCACACGU | 9.5 ± 0.4
target 1 insU 3' of 7,insG 3' of 2 (mixed) RNA 1: CACCCGUGCAAAAAUGCAGGGGUCUAAAACUGAGCGGAUAACCUCUCUAUGG RNA 2: GGGAAUGGAUCCACAUCUACGAAUUCGUACCAUAGAGAGGUUAUCUCGCUCGACCGAGAUCGGAAGAGCACACGU | 15.3 ± 1.2
target 1 del7 (mixed) RNA 1: CACCCGUGCAAAAAUGCAGGGGUCUAAAACUGAGCGGAUAACCUCUCUAUGG RNA 2: GGGAAUGGAUCCACAUCUACGAAUUCGUACCAUAGAGAGGUUAUCGCUCACCGAGAUCGGAAGAGCACACGU | 8.01 ± 0.33
target 1 C7G,C22U (mixed) RNA 1: CACCCGUGCAAAAAUGCAGGGGUCUAAAACUGAGCGGAUAACCUCUCUAUGG RNA 2: GGGAAUGGAUCCACAUCUACGAAUUCGUAUCAUAGAGAGGUUAUGCGCUCACCGAGAUCGGAAGAGCACACGU | 13.7 ± 0.7
target 1 insA 3' of 17,insC 3' of 8 (mixed) RNA 1: CACCCGUGCAAAAAUGCAGGGGUCUAAAACUGAGCGGAUAACCUCUCUAUGG RNA 2: GGGAAUGGAUCCACAUCUACGAAUUCGUACCAUAGAAGAGGUUAUCCCGCUCACCGAGAUCGGAAGAGCACACGU | 18.6 ± 1.3
target 1 C4A,U10A (mixed) RNA 1: CACCCGUGCAAAAAUGCAGGGGUCUAAAACUGAGCGGAUAACCUCUCUAUGG RNA 2: GGGAAUGGAUCCACAUCUACGAAUUCGUACCAUAGAGAGGUAAUCCGAUCACCGAGAUCGGAAGAGCACACGU | 5.3 ± 0.4
target 1 insC 3' of 5,insG 3' of 1 (mixed) RNA 1: CACCCGUGCAAAAAUGCAGGGGUCUAAAACUGAGCGGAUAACCUCUCUAUGG RNA 2: GGGAAUGGAUCCACAUCUACGAAUUCGUACCAUAGAGAGGUUAUCCGCCUCAGCCGAGAUCGGAAGAGCACACGU | 8.4 ± 0.6
